{"source": "paper PMC3711648", "biological_target": "human mutant SOD1 G93A (Cu/Zn superoxide dismutase) (human)", "assay": "SEC", "data": [{"substance": "human mutant SOD1 G93A (Cu/Zn superoxide dismutase) (natural protein)", "values": [{"measurement": "stoichiometry N", "value": 2}]}]}
